One substance from US20210155683A1 can be followed below.

The target of test [1] is NGF (as used in the TF-1 cell proliferation assays). Nature of the test: cell-based or functional assay.
The target in test [2] is human β-NGF (human) (UniProt P01138). In words: ELISA, plate coated with human β-NGF, anti-human IgG-HRP detection, 4-parameter fit.
For test [3] the target is unchanged. In words: ELISA, plate coated with 0.5 µg/mL human β-NGF; antibody at 1 µg/mL; duplicate well 1.
Test [4] shares this target. In words: ELISA, plate coated with 0.5 µg/mL human β-NGF; antibody at 1 µg/mL; duplicate well 2.
Test [5] has the same target. In words: ELISA, plate coated with 0.5 µg/mL human β-NGF; antibody 1 µg/mL diluted 1:3; duplicate well 1.
For test [6] the target is unchanged. In words: ELISA, plate coated with 0.5 µg/mL human β-NGF; antibody 1 µg/mL diluted 1:3; duplicate well 2.
The target is the same in test [7]. Nature of the test: ELISA, plate coated with 0.5 µg/mL human β-NGF; antibody 1 µg/mL diluted 1:9; duplicate well 1.
For test [8] the target is unchanged. In words: ELISA, plate coated with 0.5 µg/mL human β-NGF; antibody 1 µg/mL diluted 1:9; duplicate well 2.
For test [9] the target is unchanged. In words: ELISA, plate coated with 0.5 µg/mL human β-NGF; antibody 1 µg/mL diluted 1:27; duplicate well 1.
For test [10] the target is unchanged. Nature of the test: ELISA, plate coated with 0.5 µg/mL human β-NGF; antibody 1 µg/mL diluted 1:27; duplicate well 2.
Test [11] has the same target. Nature of the test: ELISA, plate coated with 0.5 µg/mL human β-NGF; antibody 1 µg/mL diluted 1:81; duplicate well 1.
Test [12] shares this target. Nature of the test: ELISA, plate coated with 0.5 µg/mL human β-NGF; antibody 1 µg/mL diluted 1:81; duplicate well 2.
For test [13] the target is unchanged. In words: ELISA, plate coated with 0.5 µg/mL human β-NGF; antibody 1 µg/mL diluted 1:243; duplicate well 1.
Test [14] shares this target. In words: ELISA, plate coated with 0.5 µg/mL human β-NGF; antibody 1 µg/mL diluted 1:243; duplicate well 2.
For test [15] the target is unchanged. Nature of the test: ELISA, plate coated with 0.5 µg/mL human β-NGF; antibody 1 µg/mL diluted 1:729; duplicate well 1.
The target is the same in test [16]. In words: ELISA, plate coated with 0.5 µg/mL human β-NGF; antibody 1 µg/mL diluted 1:729; duplicate well 2.

Sequence of human β-NGF (human) (P01138 122-241 limits assumed): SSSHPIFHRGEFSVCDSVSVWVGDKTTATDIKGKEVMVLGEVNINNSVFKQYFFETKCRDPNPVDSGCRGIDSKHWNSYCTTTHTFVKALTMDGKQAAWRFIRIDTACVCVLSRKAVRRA

Consider Pfizer antibody Tanezumab, for which the neutralizing EC50 to NGF (inhibition of NGF-induced TF-1 cell proliferation, CCK-8) in test [1] is 0.21 nM. The EC50 in the test with human β-NGF (human) [2] amounted to 0.103 nM. Besides, the OD (450 nm) with human β-NGF (human) [3] was 2.77 OD (450 nm); in the test with human β-NGF (human) [4], 2.71 OD (450 nm); with human β-NGF (human) [5], 2.66 OD (450 nm); with human β-NGF (human) [6] it was 2.55 OD (450 nm); in the test with human β-NGF (human) [7], 2.48 OD (450 nm); with human β-NGF (human) [8], 2.27 OD (450 nm). Also, the OD (450 nm) with human β-NGF (human) [9] is 2.17 OD (450 nm); with human β-NGF (human) [10], 1.97 OD (450 nm); with human β-NGF (human) [11] it was 1.18 OD (450 nm); with human β-NGF (human) [12], 1.27 OD (450 nm); with human β-NGF (human) [13], 0.56 OD (450 nm); with human β-NGF (human) [14], 0.609 OD (450 nm). The OD (450 nm) was 0.227 OD (450 nm) in the test with human β-NGF (human) [15] and 0.245 OD (450 nm) in the test with human β-NGF (human) [16].
